From publication PMC6126765 (Proceedings of the National Academy of Sciences of the …, 2018)

Molecular target: the molecule itself
Experiment: cryo-EM structure

B1: MBP-tagged truncated mouse TRPM7 (amino acids 1 to 1280) (domain or fragment)
chain: MSQKSWIESTLTKRECVYIIPSSKDPHRCLPGCQICQQLVRCFCGRLVKQHACFTASLAMKYSDVKLGEHFNQAIEEWSVEKHTEQSPTDAYGVINFQGGSHSYRAKYVRLSYDTKPEIILQLLLKEWQMELPKLVISVHGGMQKFELHPRIKQLLGKGLIKAAVTTGAWILTGGVNTGVAKHVGDALKEHASRSSRKICTIGIAPWGVIENRNDLVGRDVVAPYQTLLNPLSKLNVLNNLHSHFILVDDGTVGKYGAEVRLRRELEKTINQQRIHARIGQGVPVVALIFEGGPNVILTVLEYLQESPPVPVVVCEGTGRAADLLAYIHKQTEEGGNLPDAAEPDIISTIKKTFNFGQSEAVHLFQTMMECMKKKELITVFHIGSEDHQDIDVAILTALLKGTNASAFDQLILTLAWDRVDIAKNHVFVYGQQWLVGSLEQAMLDALVMDRVSFVKLLIENGVSMHKFLTIPRLEELYNTKQGPTNPMLFHLIRDVKQGNLPPGYKITLIDIGLVIEYLMGGTYRCTYTRKRFRLIYNSLGGNNRRSGRNTSSSTPQLRKSHETFGNRADKKEKMRHNHFIKTAQPYRPKMDASMEEGKKKRTKDEIVDIDDPETKRFPYPLNELLIWACLMKRQVMARFLWQHGEESMAKALVACKIYRSMAYEAKQSDLVDDTSEELKQYSNDFGQLAVELLEQSFRQDETMAMKLLTYELKNWSNSTCLKLAVSSRLRPFVAHTCTQMLLSDMWMGRLNMRKNSWYKVILSILVPPAILMLEYKTKAEMSHIPQSQDAHQMTMEDSENNFHNITEEIPMEVFKEVKILDSSDGKNEMEIHIKSKKLPITRKFYAFYHAPIVKFWFNTLAYLGFLMLYTFVVLVKMEQLPSVQEWIVIAYIFTYAIEKVREVFMSEAGKISQKIKVWFSDYFNVSDTIAIISFFVGFGLRFGAKWNYINAYDNHVFVAGRLIYCLNIIFWYVRLLDFLAVNQQAGPYVMMIGKMVANMFYIVVIMALVLLSFGVPRKAILYPHEEPSWSLAKDIVFHPYWMIFGEVYAYEIDVCANDSTLPTICGPGTWLTPFLQAVYLFVQYIIMVNLLIAFFNNVYLQVKAISNIVWKYQRYHFIMAYHEKPVLPPPLIILSHIVSLFCCVCKRRKKDKTSDGPKLFLTEEDQKKLHDFEEQCVEMYFDEKDDKFNSGSEERIRVTFERVEQMSIQIKEVGDRVNYIKRSLQSLDSQIGHLQDLSALTVDTLKTLTAQKASEASKVHNEITRELSISKHLAQNLID
stoichiometry N: 4
